Data published in publication PMC4351203.

Experiments:
Settings in all cases: reference: wild type; sites Y554
Hic-5 (Myc-tagged) = Hic-5 (Myc-tagged) (UniProt Q62219); assay: anti-FLAG co-IP, anti-Myc blot
[1] = target: paxillin (Myc-tagged; endogenous in mouse brain) (UniProt Q8VI36); assay: anti-FLAG co-IP, anti-Myc blot
[2] = target: paxillin (endogenous, HEK293T) (UniProt P49023); assay: anti-FLAG IP, FLAG-peptide elution, Western blot
[3] = target: Hic-5 (endogenous, HEK293T) (UniProt O43294); assay: anti-FLAG IP, FLAG-peptide elution, Western blot

Measured: binding against the reference

Git1 (FLAG-, YFP-tagged, transfected) (from UniProt Q9Z272) Y554F
stronger: all assays above
